In FireProtDB (doi:10.1021/bi00021a023):

Details: Saccharomyces cerevisiae (strain ATCC 204508 / S288c), DSC, reversible: yes; for ddG of mutation (higher = less stable) / denaturant m value / denaturant midpoint (higher = more stable) / unfolding free energy: pH 7, 22 °C, GdnHCl, Potassium phosphate 0.1 M; for Tm / change of melting temperature, mutant - wild type (higher = more stable) / unfolding enthalpy (calorimetric): pH 4.6, Thermal, Potassium acetate 0.1 M

Cytochrome c isoform 1 G12S|N58I, P00044 G12S N58I, sequence (P00044 whole entry G12S/N58I, canonical isoform): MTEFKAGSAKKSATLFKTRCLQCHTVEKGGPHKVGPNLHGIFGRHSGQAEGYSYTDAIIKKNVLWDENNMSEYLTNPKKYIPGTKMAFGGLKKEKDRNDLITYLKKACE
Cytochrome c isoform 1 G12A, P00044, sequence (P00044 whole entry G12A, canonical isoform): as the sequence (P00044 whole entry G12S/N58I, canonical isoform) above, with S12A, I58N counted along it
Cytochrome c isoform 1 wild type, P00044, sequence (P00044 whole entry, canonical isoform): as the sequence (P00044 whole entry G12S/N58I, canonical isoform) above, with S12G, I58N counted along it
Cytochrome c isoform 1 N58I, P00044, sequence (P00044 whole entry N58I, canonical isoform): as the sequence (P00044 whole entry G12S/N58I, canonical isoform) above, with S12G counted along it
Cytochrome c isoform 1 G12A|N58I, P00044 G12A N58I, sequence (P00044 whole entry G12A/N58I, canonical isoform): as the sequence (P00044 whole entry G12S/N58I, canonical isoform) above, with S12A counted along it

Substance	ddG of mutation (higher = less stable) (structure 1YCC) [kcal/mol]	denaturant m value (structure 1YCC) [kcal/mol/M]	denaturant midpoint (higher = more stable) (structure 1YCC) [M]	unfolding free energy (structure 1YCC) [kcal/mol]	Tm (structure 1YCC) [°C]	change of melting temperature, mutant - wild type (higher = more stable) (structure 1YCC) [°C]	unfolding enthalpy (calorimetric) (structure 1YCC) [kcal/mol]	also measured
Cytochrome c isoform 1 G12A, P00044	3.5	5.4	0.44	2.36				
Cytochrome c isoform 1 G12A|N58I, P00044 G12A N58I					47.4	-1.8	64.7	
Cytochrome c isoform 1 G12S|N58I, P00044 G12S N58I	0.31	4.75	1.17	5.55				
Cytochrome c isoform 1 N58I, P00044					62.2	13	101	
Cytochrome c isoform 1 wild type, P00044								Tm: 49.2 °C; unfolding enthalpy (calorimetric): 78.8 kcal/mol; denaturant m value: 4.36 kcal/mol/M; denaturant midpoint (higher = more stable): 1.34 M; unfolding free energy: 5.86 kcal/mol
